Source: patent US20230331850A1

What was measured:
Test in all cases: Bio-Layer Interferometry (Precision Antibody)
[1] = target: p63:IA^g7 (recombinant peptide:MHCII monomer / tetramer) (mouse)
[2] = target: 2W:IA^b (recombinant peptide:MHCII monomer) (mouse) (UniProt P14434)
Eα52-68:IA^b (mouse) = Eα52-68:IA^b (mouse) (UniProt P14434)

10-2.16 MAb (anti-IA^g7) (antibody) was tested, and the Kd [1] was 2.9 nM.

Work on AF6-120.1 (antibody) yielded a Kd [2] of 7.1 nM.

In the case of Y3P (antibody), the Kd [2] is reported as 1.9 nM.

Y-Ae (anti-Eα:IA^b) (antibody) showed a Kd (Eα52-68:IA^b (mouse)) of 0.48 nM.
